Measurements: patent US20090208496A1 (BIOTEST, published 2009)

B1: humanized B-F5 version H37L/L4L (antibody, V domains shown)
VH: EEQLVESGGGLVKPGGSLRLSCAASGFSFSDCRMYWLRQAPGKGLEWIGVISVKSENYGANYAESVRGRFTISRDDSKNTVYLQMNSLKTEDTAVYYCSASYYRYDVGAWFAYWGQGTLVTVSS
VL: DIVLTQSPDSLAVSLGERATINCRASKSVSTSGYSYIYWYQQKPGQPPKLLIYLASILESGVPDRFSGSGSGTDFTLTISSLQAEDVAVYYCQHSRELPWTFGQGTKVEIK
notes: also called hB-F5; H37L/L4L IgG1
B2: humanized B-F5 version H37L/L4M (antibody, IgG1, V domains shown)
VH: EEQLVESGGGLVKPGGSLRLSCAASGFSFSDCRMYWLRQAPGKGLEWIGVISVKSENYGANYAESVRGRFTISRDDSKNTVYLQMNSLKTEDTAVYYCSASYYRYDVGAWFAYWGQGTLVTVSS
VL: DIVMTQSPDSLAVSLGERATINCRASKSVSTSGYSYIYWYQQKPGQPPKLLIYLASILESGVPDRFSGSGSGTDFTLTISSLQAEDVAVYYCQHSRELPWTFGQGTKVEIK
notes: also called hB-F5; H37L/L4M IgG1
B3: humanized B-F5 version H37V/L4L (antibody, V domains shown)
VH: EEQLVESGGGLVKPGGSLRLSCAASGFSFSDCRMYWVRQAPGKGLEWIGVISVKSENYGANYAESVRGRFTISRDDSKNTVYLQMNSLKTEDTAVYYCSASYYRYDVGAWFAYWGQGTLVTVSS
VL: DIVLTQSPDSLAVSLGERATINCRASKSVSTSGYSYIYWYQQKPGQPPKLLIYLASILESGVPDRFSGSGSGTDFTLTISSLQAEDVAVYYCQHSRELPWTFGQGTKVEIK
notes: also called hB-F5
B4: humanized B-F5 version H37V/L4M (antibody, V domains shown)
VH: EEQLVESGGGLVKPGGSLRLSCAASGFSFSDCRMYWVRQAPGKGLEWIGVISVKSENYGANYAESVRGRFTISRDDSKNTVYLQMNSLKTEDTAVYYCSASYYRYDVGAWFAYWGQGTLVTVSS
VL: DIVMTQSPDSLAVSLGERATINCRASKSVSTSGYSYIYWYQQKPGQPPKLLIYLASILESGVPDRFSGSGSGTDFTLTISSLQAEDVAVYYCQHSRELPWTFGQGTKVEIK
notes: also called hB-F5

Target: T1, soluble CD4 (human, UniProt P01730 26-396)
T1 construct: extracellular domain
Assay: competitive ELISA against biotinylated mB-F5 on coated soluble CD4, 37 C 2 hours
Experimental: Culture supernatants of transfectomas producing the four versions of hB-F5 were collected, and concentrated. The different antibodies were purified from culture supernatants by affinity chromatography using protein A Sepharose and assessed for their CD4 binding activity by measuring, by means of competitive ELISA, their inhibitory activities against the binding of biotinylated mB-F5 to soluble CD4 coated on microtiter plates. Incubation time is 2 hours for 37 C and overnight for 4 C.

Row | Binder | Relative binding activity (% of mB-F5)
1 | B1 | 30 % of mB-F5
2 | B2 | 30 % of mB-F5
3 | B3 | 10 % of mB-F5
4 | B4 | 10 % of mB-F5
